The target in test [1] is recombinant pentameric gH complex (Towne strain) (human cytomegalovirus, Towne strain) (UniProt P17176). The test is described as follows: BLI competition on His-pentamer; competitor (antibody 2): 3-15.
Another test concerns the target CMV virions. Briefly: virion ELISA.
The target of test [2] is recombinant pentameric gH complex (Towne strain) (human cytomegalovirus, Towne strain) (UniProt P17176). The test is described as follows: BLI competition on His-pentamer; competitor (antibody 2): 1-32.
Test [3] has the same target. The test is described as follows: BLI competition on His-pentamer; competitor (antibody 2): 70.7.
For test [4] the target is unchanged. Briefly: BLI competition on His-pentamer; competitor (antibody 2): 1-150.
For test [5] the target is unchanged. Briefly: BLI competition on His-pentamer; competitor (antibody 2): 316.2.
For test [6] the target is unchanged. Briefly: BLI competition on His-pentamer; competitor (antibody 2): 2-25.
Test [7] has the same target. The test is described as follows: BLI competition on His-pentamer; competitor (antibody 2): 324.4.
Test [8] shares this target. Briefly: BLI competition on His-pentamer; competitor (antibody 2): 270.7.
For test [9] the target is unchanged. The test is described as follows: BLI competition on His-pentamer; competitor (antibody 2): 124.4.
Test [10] has the same target. The test is described as follows: BLI competition on His-pentamer; competitor (antibody 2): 2-18.
Test [11] has as its target pentameric gH complex on infectious CMV (neutralization assays) (human cytomegalovirus). Briefly: cell-based or functional assay.
The target of test [12] is recombinant pentameric gH complex (Towne strain) (human cytomegalovirus, Towne strain) (UniProt P17176). The test is described as follows: BLI competition on His-pentamer; competitor (antibody 2): 276.1.
Test [13] has the same target. Briefly: BLI competition on His-pentamer; competitor (antibody 2): 57.4.
Test [14] has the same target. The test is described as follows: BLI competition on His-pentamer; competitor (antibody 2): 3-7.
Test [15] shares this target. The test is described as follows: BLI competition on His-pentamer; competitor (antibody 2): 1-85.
Test [16] shares this target. Briefly: BLI competition on His-pentamer; competitor (antibody 2): 3-16.
Test [17] has the same target. Briefly: BLI competition on His-pentamer; competitor (antibody 2): 1-103.

Sequence of recombinant pentameric gH complex (Towne strain) (human cytomegalovirus, Towne strain) (P17176 30-715, one chain of several): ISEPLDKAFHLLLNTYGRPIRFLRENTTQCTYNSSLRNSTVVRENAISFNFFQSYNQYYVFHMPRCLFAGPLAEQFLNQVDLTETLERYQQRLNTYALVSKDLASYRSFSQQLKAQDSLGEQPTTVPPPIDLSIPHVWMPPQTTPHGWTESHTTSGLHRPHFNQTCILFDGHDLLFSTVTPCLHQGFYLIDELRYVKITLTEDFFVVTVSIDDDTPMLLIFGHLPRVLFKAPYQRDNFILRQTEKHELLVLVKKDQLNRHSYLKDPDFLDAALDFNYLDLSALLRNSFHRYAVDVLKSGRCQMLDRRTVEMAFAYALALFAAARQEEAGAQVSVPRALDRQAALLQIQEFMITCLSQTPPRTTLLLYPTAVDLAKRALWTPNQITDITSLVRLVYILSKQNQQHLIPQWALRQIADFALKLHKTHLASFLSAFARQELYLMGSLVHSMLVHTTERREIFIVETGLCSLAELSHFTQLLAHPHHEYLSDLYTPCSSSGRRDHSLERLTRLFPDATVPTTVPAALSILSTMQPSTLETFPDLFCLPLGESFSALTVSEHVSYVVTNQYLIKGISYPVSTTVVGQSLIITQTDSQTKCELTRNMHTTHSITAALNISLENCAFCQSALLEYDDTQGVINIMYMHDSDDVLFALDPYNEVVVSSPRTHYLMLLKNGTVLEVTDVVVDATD

B1: 1-103 (antibody, V domains shown)
VH: QLQLQESGPGLVKPSETLSLTCSVSGDAISGSNYYWGWIRQPPGKGLQWIGSIYHTGSTFYNPSFSSRVTLSVDTSKNQFSLKLISVNAADTAVYYCARRIRGYSGTYDWGQGTLVTVSS
VL: DIQLTQSPSFLSASVGDRVTITCRASQDISSYVAWYQQKPGNAPKLLISSASTLPSGVPSRFSGSRSGTDFTLTISSLQPEDFATYYCQQLNNFGPGTTVDIK
For the molecule B1, the Pair-wise inhibition (%) was -7% in test [1]; -12% in [2]; -31% in test [3]; -49% in test [4]; -28% in test [5]; -20% in test [6]. In addition, the Pair-wise inhibition (%) is -19% in test [7]; -35% in test [8]; -22% in [9]; -10% in test [10]; -2% in test [12]; -4% in test [13]. In addition, the Pair-wise inhibition (%) in [14] is -12%; in [15], 6%; in test [16], -38%; in [17] it was 89%. In the test with CMV virions, this molecule gave an EC50 of 0.2 µg/mL. In addition, the EC50 Neutralizing in [11] amounted to 0.004 µg/mL. In addition, in test [11], the IC50 in ARPE-19 was determined as 0.00088 µg/mL.

B2: 2-18 (antibody, V domains shown)
VH: EVQLVQSGGGLVQPGGSLRVSCAASGFSFSDHDMDWVRQAPGKGFEWVGRSRNKDYSSTTEYAASVRGRFTISRHTSEDLLYLELNTVKTEDTAVYFCARGPHHSDRSGYYGGTFDIWGQGTMVTVSS
VL: DIQMTQSPSSVSASVGDRVIITCRASQGISSWLAWYQQKPGRAPRLLIYDASTLESGVPSRFSGRGSGTEFTLTINSLQPEDFATYYCQQGNMFPLTFGGGTKVEIK
As for B2, the Pair-wise inhibition (%) in test [1] was 15%; in test [2] it was -1%; in test [3], 6%; in test [4], 12%; in test [5], 3%; in test [6], 117%. Moreover, the Pair-wise inhibition (%) in [7] was -1%; in test [8] it was -6%; in [9], -11%; in test [10], 97%; in test [12], -31%; in test [13] it was 8%. The Pair-wise inhibition (%) was 16% in test [14], 10% in [15], 17% in [16] and 8% in test [17]. In the test with CMV virions, this molecule yielded an EC50 of 0.09 µg/mL. For the same molecule, in test [11], the EC50 Neutralizing was found to be 0.0009 µg/mL. This molecule also showed an IC50 in ARPE-19 in test [11] of 0.00018 µg/mL.

B3: 3-16 (antibody, V domains shown)
VH: QVQVVQSGAEVKKPGASVMVSCKTSGYRFTIYSIAWMRQAPGQGLEWMGSINTYNGNTKYAEKFQGRVTMSRDTSTSTAYMEVRSLGSADTAMYYCARDAENWGFFDDWGQGTLVTVSS
VL: EIVLTQSPGTVSLSPGERVTLSCRASQSVGRHLAWYQQKPGQPPRLLIYGASTRATGVPDRFSGSGSETEFTLAISSLQSEDFALYYCQQYNTWPYTFGQGTKLEIK
Regarding B3, the Pair-wise inhibition (%) is 95% in [1]; -5% in [2]; 2% in [3]; -22% in test [4]; -7% in [5]; -21% in test [6]. The Pair-wise inhibition (%) in [7] was -5%; in test [8], -1%; in [9], -1%; in test [10], -17%; in test [12], 18%; in [13] it was 11%. Also, the Pair-wise inhibition (%) in test [14] came out at 79%; in test [15], 16%; in [16] it was 88%; in test [17], 6%. The EC50 with CMV virions came out at 0.1 µg/mL. In addition, the EC50 Neutralizing in test [11] was found to be 0.09 µg/mL. The IC50 in ARPE-19 in test [11] was determined as 0.017 µg/mL. In [11], the IC50 in MRC-5 was found to be 0.037 µg/mL.

Broadly, the EC50 is the midpoint of the concentration-response curve. A higher EC50 goes with lower potency in that assay.
